Experimental data published in patent US20150376238A1 (University of Washington, published 2015).

B1: Variant H3 24-8 (V27M, K49E) (designed binder)
chain: GTGMVAISMDTDKISNSFEDCKYFLIMVVSAGWTNTIFNDESGKKEIVEMNVDAIICKNISEENYKKFSKKIEIYHAEGDDVDKNISLFIEGELSKISNPLE
B2: Variant H3 24-3b (V28M) (designed binder)
chain: GTGMVAISMDTDKISNSFEDCKYFLIVMVSAGWTNTIFNDESGKKEIVKMNVDAIICKNISEENYKKFSKKIEIYHAEGDDVDKNISLFIEGELSKISNPLE
B3: Variant H3 24-3a (I2T, V29E) (designed binder)
chain: GTGMVAISMDTDKISNSFEDCKYFLIVVESAGWTNTIFNDESGKKEIVKMNVDAIICKNISEENYKKFSKKIEIYHAEGDDVDKNISLFIEGELSKISNP
B4: Variant H3 24-2 (V27M, F38S, K49E) (designed binder)
chain: GIGMVAISMDTDKISNSFEDCKYFLIMVVSAGWTNTISNDESGKKEIVEMNVDAIICKNISEENYKKFSKKIEIYHAEGDDVDKNISLFIEGELSKISNP

The binders below were run against H3 subtype hemagglutinin (strain not stated).
For B1, the Kd was 14.8 nM. Work on B2 yielded a Kd of 12.7 nM. Work on B3 yielded a Kd of 7.92 nM. Work on B4 yielded a Kd of 8.97 nM.
